# From the RNAGym collection of RNA variant scans (doi:10.1073/pnas.2313332121)
# This sample holds only a part of the variants without activity.
# B1: TPR 5TU (parent)
# chain: GGAUCUUCUCGAUCUAACAAAAAAGACAAAUCUGCCACAAAGCUUGAGAGCAUCUUCGGAUGCAGAGGCGGCAGCCUUCGGUGGCGCGAUAGCGCCAACGUUCUCAACUAUGACACGCAAAACGCGUGCUCCGUUGAAUGGAGUUUAUCAUG
# Variants of: B1
# Assay: polymerase ribozyme fitness, log enrichment relative to wild type (log ratio); higher = more active; in vitro selection for triplet polymerase activity
# How it was run: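 Mutant libraries were PCR-built and transcribed for each subunit of a heterodimeric triplet polymerase ribozyme and selected for one round in triplicate at −7 °C, frozen, before gel excision of extended constructs and streptavidin-bead capture. Input and output libraries were Illumina-sequenced, keeping genotypes with ≥10 input reads and ≥1 read per output. Fitness is a logarithmic ratio of genotype to wild-type enrichment, in base 2, using inverse-variance-weighted replicate averages.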
row,Variant,polymerase ribozyme fitness (log ratio)
1,A24G C87A,≤ -4.2
2,A24G U53A U61A G84C C125U,≤ -4.2
3,A24C U45A C57U G84A,≤ -4.2
4,A24U A39U C96A C99G U130C C131G,≤ -4.2
5,A24U C57U A89U G92C U127C C131G,≤ -4.2
6,A24G U33G C87U U101G G140C,≤ -4.2
7,G25U U44G U45A U56A G80A C85U A97U,≤ -4.2
8,G25U A30G A47G C51U G80C A110C,≤ -4.2
9,A24U A37U U82G,-0.974
10,A24U U61A C93A C116G,-4.17
11,A24U C96A U145A,0.748
12,A24U C35A C87A A91C A150G,≤ -4.2
13,A24U U31G A52C G65A G84C C87U A119G,≤ -4.2
14,G25U C85U U101C,-2.41
15,G25U C85G C132G,≤ -4.2
16,A24U G68C G83U A107C,≤ -4.2
17,G25C G50U C96U A97U,-3.33
18,G25A G48U U61G C96A A97G C132G,≤ -4.2
19,G25A C27G U44A G86C A97U A110C,≤ -4.2
20,G25U A41G U53G C54U G92C G124A U151C,≤ -4.2
21,A24G C69A A91U A138U G143U,≤ -4.2
22,G25C A41C A52G G86A C96A,≤ -4.2
23,A24U A47C G86A G94C C118U A137G,≤ -4.2
24,A24U G42A C108U,1.52

row,Variant,polymerase ribozyme fitness (log ratio)
1,A24G A49G C105U G117U,≤ -4.2
2,G25C U33A C69G G71A,≤ -4.2
3,G25U C76U,-2.44
4,G25C A64C C96U,≤ -4.2
5,G25U C35U A49U G68A G81A U109G C118U G126C,≤ -4.2
6,A24U C149G,-3.88
7,G25C A119C,-2.68
8,A24U G136U,-2.44
9,A24U C35A A41C G88C,≤ -4.2
10,A24G A26C A29C C79A C93U A115G G117A U144C A150C,≤ -4.2
11,A24U A30C C93G C118A,≤ -4.2
12,G25U A52C U90C C95U U111A U135A U151G,≤ -4.2
13,A24G A29G G46U,≤ -4.2
14,G25C C57A C87U A97G,-3.23
15,A24U A73U A119G A121U C132A,-3.66
16,A24U A73U C87A A89U,≤ -4.2
17,A24U G67C C76G G83U,-2.24
18,A24U A52G C69G G70C G88A,≤ -4.2
19,G25U A89C,-3.41
20,G25C C54A C105U,-3.21
21,G25C A26U C87G A121U C129G U151A,≤ -4.2
22,G25U C76U G94C A120G,-2.88
23,A24G G25U U31C U55A C87G U102G,≤ -4.2
24,G25U G81A G94U A120U G141C,-3.76

row,Variant,polymerase ribozyme fitness (log ratio)
1,A24U A30G A64G C87G A122U C125U C149U,≤ -4.2
2,G25U G50C C87G G136U,≤ -4.2
3,G25U G59A G62C C116U U145A,-1.79
4,A24G G25C A49U G84A U102G,≤ -4.2
5,G25C A60G G83C C96U G141U,-2.48
6,G25U G50C U77A C87U A107G,≤ -4.2
7,A24U G94A G143U,-3.4
8,A24U A49G A52C U53A U55A C69A,≤ -4.2
9,G25C A30U U78C C96G,-3.97
10,A24U G34U G42A U55G A91C G94A,-3.62
11,A24U A41G U53G G124C C131U,-1.4
12,A24U C96U,0.0587
13,A24U C96G,-0.301
14,A24G A29C A37G G46U C57U C76U A122U A138G U144G U151C,≤ -4.2
15,G25C C72U A91G A119U U127A,≤ -4.2
16,A24U U31C G59C A66G A91U C114U,≤ -4.2
17,G25C C38A G50C G92C U130G,≤ -4.2
18,A24U U45C U101G A106G,0.694
19,G25U A37C G83A U134C,-2.66
20,A24C U53A U55A A98U G126A C149G,≤ -4.2
21,G25U G86A C105U,-3.5
22,A24U A28C G59C G86C A122U G133C,≤ -4.2
23,G25U G50C C76A C87A U139G G141C,-4.02
24,A24U G80C,-4.14

row,Variant,polymerase ribozyme fitness (log ratio)
1,A24U G80U,-0.195
2,A24C G67A G81C G88A,≤ -4.2
3,A24U G58C G88A C93U A121G,≤ -4.2
4,G25U C32U C36A C85U C114U C129U U134C,≤ -4.2
5,G25C A39C C76A C79U C87A A110U C114U,≤ -4.2
6,A24U A47C G71C A97U A98G C129G,≤ -4.2
7,A24G G80C G83C A115U U134A,≤ -4.2
8,A24U C87U,-0.48
9,A24U C87A,≤ -4.2
10,A24G A52C C85U C96U C105U A120U G136A,≤ -4.2
11,G25U G42A A49C G80A C85G C95U C103A,≤ -4.2
12,G25C A41C U55A U61A C116U U144A,≤ -4.2
13,A24U U53A G80A C85U A142C,≤ -4.2
14,A24C G86U U90A U101A A106G A113U A120U G126A,≤ -4.2
15,G25A U33A G83C A91U G94A A121U C131U,≤ -4.2
16,A24G U61C U82G C95U,≤ -4.2
17,A24U U135C,-2.21
18,G25C G83U,-2.85
19,G25A A89U C95G,-4.2
20,G25C A52G G83C,-3.42
21,A24C G81U G83C A110U C114G,≤ -4.2
22,A24U G42C G84A C93U G94C C99A A122G,≤ -4.2
23,A24U G58A A66U C87A U90G U146C,≤ -4.2
24,A24U G80U C123G U146G,-1.39

row,Variant,polymerase ribozyme fitness (log ratio)
1,A24G U33G G71A C87G C93G C96A A98G A137G,≤ -4.2
2,A24U A28U U33A A41C U55G C96U,≤ -4.2
3,G25A G34U C35G C85G,-4.2
4,A24U C96U G117A G133A U145A,≤ -4.2
5,G25A U82C C105G A121U,-4.07
6,A24U C27U C51A G92A A113U,≤ -4.2
7,A24U G68C G81C G94A A98C U104C,≤ -4.2
8,A24U C93A G112A C114U C116G A119G,≤ -4.2
9,A24U A41G C69A C99G,-2.54
10,A24G G74A C93G G140C U151G,≤ -4.2
11,A24U A40C A49C C72G G83U C87G U139G U144C U151G,≤ -4.2
12,A24G G62U G94A C116G A120U U127A U135C,≤ -4.2
13,A24U U61A,-1.72
14,A24U C125A,-0.572
15,G25C C79A G84U A97C,≤ -4.2
16,A24U C54A G86A,-3.38
17,A24C U53C C118U A142C,≤ -4.2
18,A24U G58A C79G A91U C118A G141C,≤ -4.2
19,A24C G88U C95G C96U,≤ -4.2
20,G25C U31A C96G,-1.31
21,A24U C51U G59C G83A G84U C131U,-3.74
22,G25U A39U U53A C76G U145A,≤ -4.2
23,A24U A52U C85U,-1.43
24,A24U C93U A142C,-2.21

row,Variant,polymerase ribozyme fitness (log ratio)
1,G25A A26G A40G A47C C85A C116G A119C,≤ -4.2
2,G25C G88U G124A G128U U135C,≤ -4.2
3,A24C G68U C75G C76G A110G A121U,≤ -4.2
4,A24U A40C A98U,0.235
5,G25C U53A U61A C95G,-4.18
6,A24G G34A G58C C87A C99U,≤ -4.2
7,G25U G84U,-3.64
8,G25U G84A C131U G136A U144G,-1.89
9,A24U U45G G92C,-2.88
10,A24G U31A U82C U101G,≤ -4.2
11,A24U C43A A60C C96A A119U G126A,≤ -4.2
12,G25C C27G C32U A40C U55A C57A G88U C96U G141A,≤ -4.2
13,A24G U31A C38G U53A C57A U77C G83A A137C,≤ -4.2
14,A24U U82A C96G,0.476
15,G25A A49G C96G,-3.91
16,A24U C93U A119C,-1.98
17,A24U A52U C118G A142U,-3.54
18,A24U G86U,-2.59
19,A24U G86A,-1.43
20,A24U C38A G50U U55A U61G G68C G84U G141A U151G,≤ -4.2
21,A24U U31A A37U G143C,≤ -4.2
22,G25U C99U A119C A120G,-3.26
23,G25C G68C C93A C99G C114U,≤ -4.2
24,A24U G140A,-4.12

row,Variant,polymerase ribozyme fitness (log ratio)
1,A24U G34A G92C A137G,-4.07
2,G25U G83A C95A A138U U139C,≤ -4.2
3,G25C A150C,-3.47
4,A24U A28U C79G A91U A97U C116U C132U U135A,≤ -4.2
5,A24G C54U C95U A97C A119U C125U,≤ -4.2
6,G25U C32U A40U U56A G80C C85A C87A C116G U146G A150U,≤ -4.2
7,A24G C123U C132U U134A,≤ -4.2
8,A24G A66G C85A A91U U127C G133A U134A,≤ -4.2
9,A24U A98U C99U U127G,-3.94
10,G25U G48A G84A C96G,-4.04
11,G25C A52C G58C G62U U78G U82C C93A C125G,≤ -4.2
12,G25A U55A U135A,-3.79
13,A24G C116G,-2.85
14,G25U G71C U145G,≤ -4.2
15,A24U U55A C87U G92U,-3.1
16,G25C A52C G58C G59C A138U,≤ -4.2
17,G25C U61A C87G A138G,≤ -4.2
18,A24U C63A,1.21
19,A24G C35A G58A C93G C99A,≤ -4.2
20,A24U G25C A28G A30G A49U G83A C87A,≤ -4.2
21,A24U U151A,≤ -4.2
22,A24G C96G A137U,≤ -4.2
23,A24U C35U C38G A89U A91U,-3.93
